From patent publication US20170143798A1

Key:
[1] = target: mouse IL-22 receptor (IL-22R1) on murine MIN6N8 β-cells and murine islets (mouse) (UniProt Q80XZ4); assay: cell-based or functional assay
[2] = target: T1, human IL-22 receptor (IL-22R1) on human LS174T cells and human islets (human) (UniProt Q8N6P7); assay: cell-based or functional assay
T1 sequence (looked up): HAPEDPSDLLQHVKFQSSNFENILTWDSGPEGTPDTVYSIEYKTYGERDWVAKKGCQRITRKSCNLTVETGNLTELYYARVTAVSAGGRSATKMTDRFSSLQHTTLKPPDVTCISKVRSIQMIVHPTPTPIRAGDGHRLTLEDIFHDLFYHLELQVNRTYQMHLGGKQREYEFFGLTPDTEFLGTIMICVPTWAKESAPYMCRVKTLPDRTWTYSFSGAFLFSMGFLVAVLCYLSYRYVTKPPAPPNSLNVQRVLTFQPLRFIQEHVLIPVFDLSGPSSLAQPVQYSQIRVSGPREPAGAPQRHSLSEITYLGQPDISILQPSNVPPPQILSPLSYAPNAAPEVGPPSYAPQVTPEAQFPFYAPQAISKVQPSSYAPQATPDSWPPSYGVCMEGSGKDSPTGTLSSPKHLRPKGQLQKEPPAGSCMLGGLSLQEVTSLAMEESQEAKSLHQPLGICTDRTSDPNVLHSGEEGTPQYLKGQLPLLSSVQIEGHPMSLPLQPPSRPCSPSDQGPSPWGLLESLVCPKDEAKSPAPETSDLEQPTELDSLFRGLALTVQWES

Chain of UniProt Q80XZ4 (Q80XZ4 16-581): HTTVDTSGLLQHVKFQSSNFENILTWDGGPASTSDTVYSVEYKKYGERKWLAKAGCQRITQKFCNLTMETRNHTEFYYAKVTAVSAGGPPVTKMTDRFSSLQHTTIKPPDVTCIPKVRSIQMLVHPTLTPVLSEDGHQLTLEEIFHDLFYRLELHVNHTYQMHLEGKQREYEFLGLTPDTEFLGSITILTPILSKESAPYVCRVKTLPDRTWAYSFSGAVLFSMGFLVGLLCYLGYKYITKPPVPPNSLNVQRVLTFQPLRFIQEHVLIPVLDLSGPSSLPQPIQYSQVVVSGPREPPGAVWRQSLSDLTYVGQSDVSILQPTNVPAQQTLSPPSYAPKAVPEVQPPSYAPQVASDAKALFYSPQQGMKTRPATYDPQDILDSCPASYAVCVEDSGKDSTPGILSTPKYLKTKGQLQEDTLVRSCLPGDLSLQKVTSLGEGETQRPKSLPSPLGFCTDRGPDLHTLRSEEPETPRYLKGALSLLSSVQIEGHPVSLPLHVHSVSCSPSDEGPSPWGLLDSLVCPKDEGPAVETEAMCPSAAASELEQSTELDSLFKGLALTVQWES

Question: For “recombinant human IL-22 (from UniProt Q9GZX6 34-179) (ligand)”, which reduction of ER stress (ERAI-sXBP1 reporter) in murine MIN6N8 cells with 0.5 mM palmitate; amount needed against recombinant mouse IL-22 [1] is on record?
Answer: 16 fold

B1: recombinant mouse IL-22 (ligand, UniProt Q9JJY9 34-179, looked up)
chain: LPVNTRCKLEVSNFQQPYIVNRTFMLAKEASLADNNTDVRLIGEKLFRGVSAKDQCYLMKQVLNFTLEDVLLPQSDRFQPYMQEVVPFLTKLSNQLSSCHISGDDQNIQKNVRRLKETVKKLGESGEIKAIGELDLLFMSLRNACV
Question: How did the suppression of oxidative stress (nitrite production) in human LS174T cells with 0.5 mM palmitate; concentration needed against human recombinant IL-22 [2] turn out when B1 was run?
Answer: 64 fold
